# Residue numbers refer to the chain shown, from its start. Numbers in names are those of the source.
# B1: Girentuximab humanised VH4/Vκ3 IgG1 (antibody)
# heavy: not shown
# light: DIQMTQSPSSLSASVGDRVTITCKASQNVVSAVAWYQQKPGQAPRLLIYSASNRYTGVPDRFSGSGSGTDFTLTISSLQAEDLADYFCQQYSNYPWTFGGGTKVEIKRTVAAPSVFIFPPSDEQLKSGTASVVCLLNNFYPREAKVQWKVDNALQSGNSQESVTEQDSKDSTYSLSSTLTLSKADYEKHKVYACEVTHQGLSSPVTKSFNRGEC
# B2: Girentuximab humanised VH4/Vκ2 IgG1 (antibody)
# heavy: not shown
# light: B1 light with Q3V, S63T
# B3: Girentuximab humanised VH4/Vκ1 IgG1 (antibody)
# heavy: not shown
# light: B1 light with Q3V, S10F, R45K, S63T, A80S
# B4: Girentuximab humanised VH3/Vκ2 IgG1 (antibody)
# heavy: not shown
# light: B1 light with Q3V, S63T
# B5: Girentuximab humanised VH5/Vκ3 IgG1 (antibody, V domains shown)
# VH: EVQLVESGGGLVKPGGSLRLSCAASGFTFSNYYMSWVRQAPGKGLEWVAAINSDGGITYYLDTVKGRFTISRDNAKNTLYLQMNSLRAEDTALYYCARHRSGYFSMDYWGQGTLVTVSS
# VL: DIQMTQSPSSLSASVGDRVTITCKASQNVVSAVAWYQQKPGQAPRLLIYSASNRYTGVPDRFSGSGSGTDFTLTISSLQAEDLADYFCQQYSNYPWTFGGGTKVEIKR
# B6: Girentuximab humanised VH3/Vκ3 IgG1 (antibody)
# heavy: not shown
# light: B1 light
# B7: Girentuximab humanised VH4/Vκ5 IgG1 (antibody)
# heavy: not shown
# light: B1 light with L46R, F87Y
# B8: Girentuximab humanised VH3/Vκ5 IgG1 (antibody)
# heavy: not shown
# light: B1 light with L46R, F87Y
# B9: Girentuximab humanised VH3/Vκ1 IgG1 (antibody)
# heavy: not shown
# light: B1 light with Q3V, S10F, R45K, S63T, A80S
# B10: Girentuximab humanised VH1/Vκ3 IgG1 (antibody, V domains shown)
# VH: B5 VH with E1D, Q3K, W47L, N84S, R87K, A88S, L114S
# VL: B5 VL
# B11: Girentuximab humanised VH5/Vκ4 IgG1 (antibody, V domains shown)
# VH: B5 VH
# VL: B5 VL with F87Y
# B12: Girentuximab humanised VH1/Vκ5 IgG1 (antibody, V domains shown)
# VH: B5 VH with E1D, Q3K, W47L, N84S, R87K, A88S, L114S
# VL: B5 VL with L46R, F87Y
# B13: Girentuximab humanised VH5/Vκ2 IgG1 (antibody, V domains shown)
# VH: B5 VH
# VL: B5 VL with Q3V, S63T
# B14: Girentuximab humanised VH1/Vκ4 IgG1 (antibody, V domains shown)
# VH: B5 VH with E1D, Q3K, W47L, N84S, R87K, A88S, L114S
# VL: B5 VL with F87Y
# B15: Girentuximab humanised VH5/Vκ5 IgG1 (antibody, V domains shown)
# VH: B5 VH
# VL: B5 VL with L46R, F87Y
# B16: Girentuximab humanised VH4/Vκ4 IgG1 (antibody)
# heavy: not shown
# light: B1 light with F87Y
# B17: Girentuximab humanised VH1/Vκ1 IgG1 (antibody, V domains shown)
# VH: B5 VH with E1D, Q3K, W47L, N84S, R87K, A88S, L114S
# VL: B5 VL with Q3V, S10F, R45K, S63T, A80S
# B18: Girentuximab humanised VH5/Vκ1 IgG1 (antibody, V domains shown)
# VH: B5 VH
# VL: B5 VL with Q3V, S10F, R45K, S63T, A80S
# B19: Girentuximab humanised VH1/Vκ2 IgG1 (antibody, V domains shown)
# VH: B5 VH with E1D, Q3K, W47L, N84S, R87K, A88S, L114S
# VL: B5 VL with Q3V, S63T
# B20: Girentuximab humanised VH3/Vκ4 IgG1 (antibody)
# heavy: not shown
# light: B1 light with F87Y
# B21: Girentuximab humanised VH4/Vκ4 IgG4 (S228P, L235E, H310A, H435Q) (antibody)
# heavy: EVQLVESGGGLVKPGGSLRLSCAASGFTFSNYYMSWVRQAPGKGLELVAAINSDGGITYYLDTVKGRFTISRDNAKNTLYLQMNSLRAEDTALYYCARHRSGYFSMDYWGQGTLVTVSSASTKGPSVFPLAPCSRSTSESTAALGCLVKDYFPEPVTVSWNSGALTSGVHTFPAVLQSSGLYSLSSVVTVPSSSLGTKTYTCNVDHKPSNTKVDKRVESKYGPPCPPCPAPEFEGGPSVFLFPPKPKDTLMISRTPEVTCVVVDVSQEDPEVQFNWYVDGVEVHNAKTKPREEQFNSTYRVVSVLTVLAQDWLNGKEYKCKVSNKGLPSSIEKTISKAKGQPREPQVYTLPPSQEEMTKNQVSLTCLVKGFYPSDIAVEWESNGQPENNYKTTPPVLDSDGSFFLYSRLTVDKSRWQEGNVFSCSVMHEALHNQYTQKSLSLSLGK
# light: B1 light with F87Y
# B22: Girentuximab humanised VH3/Vκ4 IgG1 (H310A, H435Q) (antibody)
# heavy: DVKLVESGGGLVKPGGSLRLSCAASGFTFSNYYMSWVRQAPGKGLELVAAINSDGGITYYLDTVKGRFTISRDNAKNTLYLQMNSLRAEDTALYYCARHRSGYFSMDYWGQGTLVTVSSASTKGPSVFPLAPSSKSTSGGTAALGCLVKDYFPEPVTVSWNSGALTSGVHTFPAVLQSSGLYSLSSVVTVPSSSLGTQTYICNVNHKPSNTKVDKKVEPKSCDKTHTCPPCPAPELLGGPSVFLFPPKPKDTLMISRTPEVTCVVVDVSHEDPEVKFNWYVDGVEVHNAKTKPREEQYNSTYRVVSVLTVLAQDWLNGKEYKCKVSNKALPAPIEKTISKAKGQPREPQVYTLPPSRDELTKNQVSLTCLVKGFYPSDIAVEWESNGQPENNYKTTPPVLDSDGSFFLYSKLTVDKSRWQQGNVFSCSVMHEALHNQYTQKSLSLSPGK
# light: B1 light with F87Y
# B23: Girentuximab humanised VH4/Vκ3 IgG4 (S228P, L235E, H310A, H435Q) (antibody)
# heavy: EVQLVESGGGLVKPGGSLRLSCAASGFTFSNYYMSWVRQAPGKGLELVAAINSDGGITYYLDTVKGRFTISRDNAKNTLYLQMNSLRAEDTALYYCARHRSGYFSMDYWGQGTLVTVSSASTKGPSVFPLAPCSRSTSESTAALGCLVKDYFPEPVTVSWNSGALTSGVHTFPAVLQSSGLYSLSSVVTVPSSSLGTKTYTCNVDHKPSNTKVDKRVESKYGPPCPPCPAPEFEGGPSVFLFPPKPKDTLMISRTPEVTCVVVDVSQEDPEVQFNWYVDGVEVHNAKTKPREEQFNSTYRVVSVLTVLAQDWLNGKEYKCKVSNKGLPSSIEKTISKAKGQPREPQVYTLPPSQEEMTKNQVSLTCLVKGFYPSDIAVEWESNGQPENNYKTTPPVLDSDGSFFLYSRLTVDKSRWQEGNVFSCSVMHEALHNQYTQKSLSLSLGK
# light: B1 light
# B24: Girentuximab humanised VH3/Vκ4 IgG4 (S228P, L235E, H310A, H435Q) (antibody)
# heavy: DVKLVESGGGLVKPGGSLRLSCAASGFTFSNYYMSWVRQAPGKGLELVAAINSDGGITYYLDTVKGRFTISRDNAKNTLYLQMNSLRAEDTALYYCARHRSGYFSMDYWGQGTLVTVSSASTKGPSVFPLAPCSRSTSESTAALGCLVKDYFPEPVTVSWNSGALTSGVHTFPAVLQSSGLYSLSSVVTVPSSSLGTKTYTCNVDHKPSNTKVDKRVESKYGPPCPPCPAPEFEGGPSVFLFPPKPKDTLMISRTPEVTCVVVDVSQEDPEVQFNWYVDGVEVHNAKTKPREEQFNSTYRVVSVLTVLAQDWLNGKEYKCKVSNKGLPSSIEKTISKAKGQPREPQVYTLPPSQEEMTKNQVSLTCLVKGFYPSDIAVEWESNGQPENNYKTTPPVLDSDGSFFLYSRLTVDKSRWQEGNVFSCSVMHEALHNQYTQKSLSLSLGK
# light: B1 light with F87Y
# B25: Girentuximab humanised VH4/Vκ4 IgG1 (H310A, H435Q) (antibody)
# heavy: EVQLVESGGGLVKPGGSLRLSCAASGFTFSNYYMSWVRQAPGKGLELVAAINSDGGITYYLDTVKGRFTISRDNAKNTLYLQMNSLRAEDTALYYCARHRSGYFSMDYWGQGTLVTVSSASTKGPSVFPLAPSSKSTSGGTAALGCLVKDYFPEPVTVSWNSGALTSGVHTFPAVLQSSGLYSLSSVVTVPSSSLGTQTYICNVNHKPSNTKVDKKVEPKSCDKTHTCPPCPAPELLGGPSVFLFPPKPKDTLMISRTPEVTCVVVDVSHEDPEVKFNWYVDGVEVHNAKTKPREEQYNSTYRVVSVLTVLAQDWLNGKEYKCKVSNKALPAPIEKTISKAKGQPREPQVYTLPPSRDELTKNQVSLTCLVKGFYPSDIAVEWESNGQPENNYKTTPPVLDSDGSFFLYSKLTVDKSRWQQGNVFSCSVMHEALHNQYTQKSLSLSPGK
# light: B1 light with F87Y
# B26: Girentuximab humanised VH4/Vκ3 IgG1 (H310A, H435Q) (antibody)
# heavy: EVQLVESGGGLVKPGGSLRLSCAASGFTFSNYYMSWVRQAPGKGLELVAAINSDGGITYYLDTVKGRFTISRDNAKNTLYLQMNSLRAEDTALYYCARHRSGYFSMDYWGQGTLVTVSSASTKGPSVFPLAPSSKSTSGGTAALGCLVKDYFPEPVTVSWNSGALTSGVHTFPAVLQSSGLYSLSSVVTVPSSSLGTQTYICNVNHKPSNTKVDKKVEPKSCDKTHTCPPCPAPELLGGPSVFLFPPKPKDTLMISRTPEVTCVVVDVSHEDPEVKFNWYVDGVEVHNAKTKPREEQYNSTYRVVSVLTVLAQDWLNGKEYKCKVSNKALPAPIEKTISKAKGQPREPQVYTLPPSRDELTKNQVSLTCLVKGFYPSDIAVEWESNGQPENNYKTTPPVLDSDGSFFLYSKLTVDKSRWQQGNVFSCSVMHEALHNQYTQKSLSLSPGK
# light: B1 light
# B27: Chimeric Girentuximab (VH0/Vκ0) IgG1 (H310A, H435Q) (antibody)
# heavy: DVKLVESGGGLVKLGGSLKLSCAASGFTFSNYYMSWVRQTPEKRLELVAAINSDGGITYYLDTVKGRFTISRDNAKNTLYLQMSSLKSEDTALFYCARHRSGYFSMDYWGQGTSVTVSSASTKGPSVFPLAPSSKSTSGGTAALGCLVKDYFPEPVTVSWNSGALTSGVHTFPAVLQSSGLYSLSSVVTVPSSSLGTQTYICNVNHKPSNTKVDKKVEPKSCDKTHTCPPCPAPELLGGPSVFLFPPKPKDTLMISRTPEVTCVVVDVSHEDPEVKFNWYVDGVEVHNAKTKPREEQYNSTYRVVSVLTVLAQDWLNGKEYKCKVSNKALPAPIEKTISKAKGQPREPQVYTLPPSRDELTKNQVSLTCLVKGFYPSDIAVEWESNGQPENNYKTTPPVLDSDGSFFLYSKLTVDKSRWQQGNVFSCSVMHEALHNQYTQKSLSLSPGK
# light: DIVMTQSQRFMSTTVGDRVSITCKASQNVVSAVAWYQQKPGQSPKLLIYSASNRYTGVPDRFTGSGSGTDFTLTISNMQSEDLADFFCQQYSNYPWTFGGGTKLEIKRTVAAPSVFIFPPSDEQLKSGTASVVCLLNNFYPREAKVQWKVDNALQSGNSQESVTEQDSKDSTYSLSSTLTLSKADYEKHKVYACEVTHQGLSSPVTKSFNRGEC
# notes: Chimeric antibody on the FcRn-null IgG1 backbone; also called chimeric IgG1 (H310A, H435Q)
# B28: Chimeric Girentuximab (VH0/Vκ0) IgG4 (S228P, L235E, H310A, H435Q) (antibody)
# heavy: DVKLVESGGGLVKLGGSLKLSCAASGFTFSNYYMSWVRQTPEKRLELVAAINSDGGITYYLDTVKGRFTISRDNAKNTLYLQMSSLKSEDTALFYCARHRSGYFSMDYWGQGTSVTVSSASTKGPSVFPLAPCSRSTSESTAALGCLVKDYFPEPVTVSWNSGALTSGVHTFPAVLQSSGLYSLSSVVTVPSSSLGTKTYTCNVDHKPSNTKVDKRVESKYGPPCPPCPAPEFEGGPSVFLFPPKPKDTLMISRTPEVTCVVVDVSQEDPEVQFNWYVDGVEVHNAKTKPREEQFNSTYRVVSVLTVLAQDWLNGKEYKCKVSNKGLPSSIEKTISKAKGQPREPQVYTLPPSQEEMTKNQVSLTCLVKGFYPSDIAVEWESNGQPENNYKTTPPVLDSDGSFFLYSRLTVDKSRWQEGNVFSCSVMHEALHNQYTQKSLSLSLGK
# light: B27 light
# notes: Chimeric antibody on the FcRn- and FcRγ-null IgG4 backbone; also called chimeric IgG4 (S228P, L235E, H310A, H435Q)
# Target: T1, human carbonic anhydrase IX (CAIX) (human, UniProt Q16790 38-414)
# Test: SPR (Biacore T200), single cycle kinetics; antibody in HEK EBNA supernatant captured on Protein G chip, CAIX as analyte
# Procedure: All single cycle kinetic experiments were run at 25° C. with HBS-P+ running buffer (pH 7.4) (GE Healthcare, Little Chalfont, UK). For direct comparison, all antibodies were captured on a Protein G chip (GE Healthcare, Uppsala, Sweden).
# Antibodies were diluted in running buffer to a final concentration of 0.5 μg/ml, based on concentrations assessed by ELISA titre. At the start of each cycle, antibodies were loaded onto Fc2, Fc3 and Fc4 of the Protein G chip (GE Healthcare, Little Chalfont, UK). IgGs were captured at a flow rate of 10 μl/min to give an immobilisation level (RL) of ˜79 RU, the theoretical value to obtain an Rmax of ˜50 RU. The surface was then allowed to stabilise. Single cycle kinetic data was obtained with Carbonic Anhydrase IX (CAIX, Stratech, Newmarket, UK) as the analyte at a flow rate of 30 μl/min to minimise any potential mass transport limitations. […] The signal from the reference channel Fc1 (no antibody) was subtracted from that of Fc2, Fc3 and Fc4 to correct for differences in non-specific binding to a reference surface. […] The association phase for the four injections of increasing concentrations of CAIX was monitored for 200 seconds each time and a single dissociation phase was measured for 300 seconds following the last injection of CAIX. Regeneration of the Protein G surface was conducted using an injection of 10 mM glycine-HCL pH 1.5 followed by an injection of 10 mM glycine-HCL pH 1.5 containing 0.5% P20.
relative KD (against the reference chimeric VH0/Vκ0 IgG1) [fold],binding result,Binder
≤ 2,,B1
≤ 2,,B2
≤ 2,,B3
≤ 2,,B4
,binds,B5
≤ 2,,B6
,binds,B7
,binds,B8
≤ 2,,B9
≤ 2,,B10
,binds,B11
,binds,B12
,binds,B13
≤ 2,,B14
,binds,B15
≤ 2,,B16
≤ 2,,B17
,binds,B18
≤ 2,,B19
≤ 2,,B20

# Target: T1, human carbonic anhydrase IX (CAIX)
# Test: Biacore multicycle analysis and competition ELISA (conclusion of Example 1)
row,binding relative to the IgG1 chimeric antibody [fold],Binder
1,≤ 2,B1
2,≤ 2,B2
3,≤ 2,B4
4,≤ 2,B6
5,≤ 2,B16
6,≤ 2,B20

# Target: T1, human carbonic anhydrase IX (CAIX)
# Test: Biacore multicycle kinetic analysis (conclusion of Example 1)
# Procedure: (§1) The purified antibodies were diluted to a concentration of 1 μg/ml in HBS-P+. […] Following capture, the surface was allowed to stabilise. Kinetic data was obtained using a flow rate of 30 μl/min to minimise any potential mass transfer effects. For the kinetics analysis, carbonic anhydrase IX (CAIX) was used. Multiple repeats of the blank (CAIX) and a repeat of a single concentration of the analyte were programmed into the kinetic run in order to check the stability of both the surface and analyte over the kinetic cycles. For kinetic analysis, a two-fold dilution range was selected from 50 nM to 0.078 nM CAIX. The association phase of CAIX was monitored for 280 seconds and the dissociation phase was monitored for 300 seconds. Regeneration of the Protein G surface was conducted using an injection of 10 mM glycine-HCL pH 1.5 followed by an injection of 10 mM glycine-HCL pH 1.5 containing 0.5% P20. The signal from the reference channel Fc1 was subtracted from that of Fc2, Fc3 and Fc4 to correct for differences in non-specific binding to a reference surface, and a global Rmax parameter was used in the 1-to-1 binding model. The relative KD was calculated by dividing the KD of the humanised variants by that of the chimeric antibody on the same chip.
row,binding relative to VH0/Vκ0 with the same IgG backbone [fold],Binder
1,≤ 2,B1
2,≤ 2,B21
3,≤ 2,B22
4,≤ 2,B23
5,≤ 2,B24
6,≤ 2,B25
7,≤ 2,B16
8,≤ 2,B26
9,≤ 2,B20

# Target: T1, human carbonic anhydrase IX (CAIX)
# Test: SPR (Biacore T200), multicycle kinetics; purified antibody captured on Protein G chip, CAIX as analyte
# Procedure: as §1
row,relative KD (KD of the variant divided by KD of the chimeric antibody on the same chip) [fold],Binder
1,≤ 2,B27
2,≤ 2,B28
3,≤ 2,B1
4,≤ 2,B2
5,≤ 2,B4
6,≤ 2,B6
7,≤ 2,B16
8,≤ 2,B20

# Target: T1, human carbonic anhydrase IX (CAIX)
# Test: competition ELISA on coated CAIX; competitor: biotinylated chimeric Girentuximab IgG1
# Procedure: CAIX was diluted in 1×PBS to 0.5 μg/ml and 100 μl/well was coated overnight at 4° C. on a 96-well ELISA plate. The following day, the plate was washed 3× with 1×PBS/0.05% Tween (PBST) and blocked with 200 μl of 2% BSA/PBS for one hour at room temperature.
# After washing the plate 3× with PBS-T, 100 μl of chimeric/test antibody mix was added to the ELISA plate.
# For colour development, the plate was washed 3× with PBS-T following which 100 μl of TMB substrate was added and incubated for approximately five minutes at room temperature. The reaction was stopped with 50 μl of 3.0 M hydrochloric acid and absorbance was read immediately using a Dynex plate reader at 450 nm.
row,relative IC50 (IC50 of the variant divided by IC50 of the Girentuximab chimeric IgG1 antibody on the same plate) [fold],Binder
1,≤ 2,B27
2,≤ 2,B28
3,≤ 2,B1
4,≤ 2,B2
5,≤ 2,B4
6,≤ 2,B6
7,≤ 2,B16
8,≤ 2,B20

# Target: T1, human carbonic anhydrase IX (CAIX)
# Test: SPR (Biacore T200), multicycle kinetics; purified CHO-expressed antibody captured on Protein G chip, CAIX as analyte
# Procedure: as §1
row,relative KD (KD of the variant divided by KD of the chimeric antibody with the same IgG constant domain) [fold],Binder
1,≤ 2,B1
2,≤ 2,B21
3,≤ 2,B22
4,≤ 2,B23
5,≤ 2,B24
6,≤ 2,B25
7,≤ 2,B16
8,≤ 2,B26
9,≤ 2,B20
